Data reported in US20210386836.

Target: C3a, P01024
Sequence (P01024 672-748): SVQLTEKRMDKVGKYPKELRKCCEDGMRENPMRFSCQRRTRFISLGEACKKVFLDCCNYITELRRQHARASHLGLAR

B1: PrtISS-HT (protein)
chain: MRKKWVATAIIALASGSTVFLSQTSSVEAAIGETSVQNVKVSVAKNESDSQKFNNSQNLEQKTPQAAAANQNGSQVQNDHTETQLQNQQTTQSQVTQAHTEENNASSIPEPANQADHVKGNVQSAWDQGYKGQNTVVAVIDSGADTSHKDFQTMPSNPKLKQEDVQSKIDQQGYGKYVNEKFPYVYNYADRDNDYIKSDDNNQXNDSPHGQHVSGIIAADGHPEGDQQYVVGVAPEAQLMQLRVFGQFSDEKTDDVARAIYDATNLGADVIQMSLGQGVADQQLTNIEQKAVQYAIDHGVFVSISASNNGNSASVDNPSKVTAKGYGSGSEAGNYEPLNSGTVANPGASKNALTVAAETSGTGKDSDMASFSSWGPLSDFSLKPDLSAPGYQVVSTVNDNQYQTMSGTSMAGPFAAGSAALVIQRLKQTNPELKGAELVAATKALLMNSAKVQTQNGYTTPVSPRRQGAGQIDVGAATANPVYVTAADGTSSLSLRQVDEKTTFTLTFHNLTDQEQSYSFNDLGGGYTEQRDPDSGVFHEVQLAGAHVNGVGNFTLAPKEVKDLQYTLDLQGLNKNQPVEGWLHFTNDKDKSTVVVPYLAYYGDLTSENVFDQNANEEKPDIQGNRFVNENNYPLGVTDQESLKQLVNVDSDYNWQEVAKLYESGKVAFSPNDDHQSDLIKPYAYLKQNVKDLKVEILDAKGNVVRVVSDVQGVDKSYDESGVTKDASLSVSMRDNPDAFEWDGKVYDTKTGQMVTAPDGQYTYRFVATLWNEGPNQKQTADFPVVVDTQAPSLSVKYDSATHTLSGNYEDKGAGFTDYSYVTVQVNDKVFGYKLNEGESGFDNSEKTKGHFNFTLSSDALDALSGSLNKVSVTLSDVANNTTVKTVDVPAVKDQPAVSVWNATEGVEFNKNSKDYNKENDTYTLYGSAAQDFYLNGALVQVRDGKYEVPVKTTTQDLVFSTDQAGKNVLKSFTTFTPKAFFNWQNVDGFDGNFGVNIYSVKTNDPNNAVVQAAVPLGKNVKAYAQDYFTGEVYKGQVENGVATFHVHTSINQGEDGIFKRALLTGWSEVDGPAYNDKQVTSKAGVASSNHLGVYYTTDKVNRKVYTDRADLGVDVQDEAADLSSFGPTAYPGHALADLTTRTDPNPAIHFDYLNDNDTTRFGQNAVTDGYYDSVTKKFTVTGHVDPEVKSLTVLGDSSDENAPQNQVKLGKDGKFSFSFTTENVGQRPVAYIYTDQNGQKVRGTLNVVLDTVAPTLNVDQVNGNELEVKTNNPLFKLSGVVNDNLDGYRLYVNGNNIYREFLNSGYNKLAGLNTDGTDVNPYGPHNFEESFNLNDDNNQPTTHVFTIYVVDQVGNKVEKKIAVNYDPDYVAPRHHHHHH
modifications: not fully specified; X: residue not identified in the source
- proteolytic degradation assay (SDS-PAGE): displayed activity against hC3a
